Sequences and labels used below:
B1: hNEU1-TMS2 (domain or fragment)
chain: not shown
modifications: 15N-labeled
notes: human NEU1, residues R305-R341, holding the transmembrane segment TM2; Embedded in DPC micelles for NMR; also called hNEU1/TMS2 fragment; hNEU1 TM2 segment; source: bacterial expression and purification as described in Maurice et al. (2016)
B2: mutIntPepR (peptide)
peptide: GSMWHHHHHHGGELVDPVVVAIAVVTSSIIAFFSN
notes: holds the His6; not NEU1; human NEU1, TM2 segment with four point mutations; The gene construct had GB1 as leading fusion protein followed by a thrombin cleavage site; the printed peptide begins with GS, so GB1 was probably cleaved off (surmised); Unlabeled; embedded in DPC micelles; also called recombinant version of the four-point mutated peptide IntPep; source: continuous exchange cell-free …

Series [1] deals with the molecule itself. The series can be described thus: NMR titration; homodimerisation: 0.4 mM 15N-labeled hNEU1-TMS2 in DPC micelles, D/P 50 titrated with DPC to 110 (further samples to D/P 200); pH 6.5, 20 mM sodium phosphate, 313 K, 800 MHz, 1H/15N-TROSY.
The target of the series “hNEU1-TMS2” is B1. The series can be described thus: NMR titration; heterodimerisation: 0.3 mM 15N-labeled hNEU1-TMS2 in DPC micelles (D/P 120) titrated with unlabeled recombinant peptide in micelles up to N/I of 1 (D/P near 100); pH 6.5, 20 mM sodium phosphate, 313 K, 1H/15N-TROSY. As to conditions: both partners purified.

Turning to B1, the “stoichiometry N” value in series [1] was 2. With B2, the binding result with hNEU1-TMS2 is “binds”.

These data come from article PMC7772355, “Transmembrane Peptides as a New Strategy to Inhibit Neuraminidase-1 Activation” (Frontiers in Cell and Developmental Biology, 2020).
